From patent US20250388633A1 come the findings set out here.

The target of this test is growth factor receptors. Briefly: cell-based or functional assay.
Turning to SSVKSQPSRVHHSPISILFI [SEQ ID NO: 57], the p-Smad1/5/8 (%) (quantification of western blots of phospho-smad1/5/8) is 41%.
NDEGLESVPTEERSVKVAKV [SEQ ID NO: 63] registered a p-Smad1/5/8 (%) (quantification of western blots of phospho-smad1/5/8) of 34%.
Next, SIPKASSTPTELSPINMLYF [SEQ ID NO: 54]: 32%; NDEGLESVPTEESAISMLYL [SEQ ID NO: 56]: 28%; ASASPSSVSQDLSSLSILFF [SEQ ID NO: 58]: 37%.
Next, SSVKSQPSRVHHKPLSMLYV [SEQ ID NO: 62]: 31%; VVPKPSSAPTQLEPISILYL [SEQ ID NO: 59]: 29%.
